# Measured values reported in paper PMC5651216, “Structural Basis for a Safety-Belt Mechanism That Anchors Condensin to Chromosomes”.
# T1: Sc Ycg1 crystallization construct;Sc Brn1 short kleisin loop (Saccharomyces cerevisiae;Saccharomyces …, UniProt Q06680;P38170 6-932;384-529, del499-555|del418-444)
# T1 sequence 1: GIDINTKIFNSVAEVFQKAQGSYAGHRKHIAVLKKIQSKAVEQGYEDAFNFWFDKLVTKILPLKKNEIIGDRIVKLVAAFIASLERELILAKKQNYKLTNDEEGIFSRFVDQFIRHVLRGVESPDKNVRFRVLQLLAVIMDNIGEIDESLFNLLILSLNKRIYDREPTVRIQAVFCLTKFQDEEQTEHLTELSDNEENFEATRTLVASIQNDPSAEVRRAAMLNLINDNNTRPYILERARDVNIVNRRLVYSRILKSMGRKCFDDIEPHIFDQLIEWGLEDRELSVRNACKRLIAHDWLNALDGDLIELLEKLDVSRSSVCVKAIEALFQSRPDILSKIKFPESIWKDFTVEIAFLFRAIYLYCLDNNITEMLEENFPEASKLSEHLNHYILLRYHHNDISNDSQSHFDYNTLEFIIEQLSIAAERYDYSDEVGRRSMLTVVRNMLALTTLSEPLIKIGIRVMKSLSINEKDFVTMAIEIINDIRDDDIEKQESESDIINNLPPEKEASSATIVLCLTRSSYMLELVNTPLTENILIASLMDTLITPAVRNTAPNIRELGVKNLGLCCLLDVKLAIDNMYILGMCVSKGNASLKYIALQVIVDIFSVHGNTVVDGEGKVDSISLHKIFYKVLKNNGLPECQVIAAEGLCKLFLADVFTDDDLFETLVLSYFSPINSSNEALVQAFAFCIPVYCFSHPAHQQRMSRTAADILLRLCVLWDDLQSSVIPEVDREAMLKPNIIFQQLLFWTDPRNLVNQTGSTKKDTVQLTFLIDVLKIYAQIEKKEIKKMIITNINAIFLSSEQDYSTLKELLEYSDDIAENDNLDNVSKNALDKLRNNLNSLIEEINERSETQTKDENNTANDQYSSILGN
# T1 sequence 2: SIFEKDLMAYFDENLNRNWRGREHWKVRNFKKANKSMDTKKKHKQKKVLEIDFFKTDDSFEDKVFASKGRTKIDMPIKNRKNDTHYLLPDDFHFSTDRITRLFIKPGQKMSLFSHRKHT
# T2: Sc Ycg1 crystallization construct;Sc Brn1 384-529 (Saccharomyces cerevisiae;Saccharomyces …, UniProt Q06680;P38170 6-932;384-529, del499-555|)
# T2 sequence 1: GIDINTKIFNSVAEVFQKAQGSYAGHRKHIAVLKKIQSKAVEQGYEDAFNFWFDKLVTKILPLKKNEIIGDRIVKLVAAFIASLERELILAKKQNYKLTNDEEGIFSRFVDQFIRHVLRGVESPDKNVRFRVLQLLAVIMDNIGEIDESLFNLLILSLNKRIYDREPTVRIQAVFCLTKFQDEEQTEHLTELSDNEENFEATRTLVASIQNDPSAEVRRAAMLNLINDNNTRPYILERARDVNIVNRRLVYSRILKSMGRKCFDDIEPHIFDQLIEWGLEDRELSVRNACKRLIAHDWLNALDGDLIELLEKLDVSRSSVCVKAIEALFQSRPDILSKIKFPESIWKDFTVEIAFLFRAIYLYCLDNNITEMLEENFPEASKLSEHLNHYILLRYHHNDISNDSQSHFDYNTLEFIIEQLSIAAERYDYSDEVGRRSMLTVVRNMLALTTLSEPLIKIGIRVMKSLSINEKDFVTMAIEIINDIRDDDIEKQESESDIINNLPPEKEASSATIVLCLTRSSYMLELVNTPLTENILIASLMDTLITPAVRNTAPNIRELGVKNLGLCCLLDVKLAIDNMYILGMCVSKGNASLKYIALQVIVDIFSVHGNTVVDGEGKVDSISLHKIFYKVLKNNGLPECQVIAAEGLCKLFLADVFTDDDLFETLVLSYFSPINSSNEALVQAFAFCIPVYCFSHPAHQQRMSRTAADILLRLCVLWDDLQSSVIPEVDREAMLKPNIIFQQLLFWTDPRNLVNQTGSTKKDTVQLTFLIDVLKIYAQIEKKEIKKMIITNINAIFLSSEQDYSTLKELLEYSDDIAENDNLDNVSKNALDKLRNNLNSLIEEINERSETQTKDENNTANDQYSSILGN
# T2 sequence 2: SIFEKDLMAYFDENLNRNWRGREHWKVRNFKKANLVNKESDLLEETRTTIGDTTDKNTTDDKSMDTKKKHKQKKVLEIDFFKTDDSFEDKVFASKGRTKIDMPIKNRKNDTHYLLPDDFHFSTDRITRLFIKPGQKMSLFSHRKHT
# B1: 18-bp palindromic dsDNA (dsDNA)
# DNA 1: GATGTGTAGCTACACATC
# DNA 2: GATGTGTAGCTACACATC
# B2: 35-bp dsDNA (dsDNA)
# DNA 1: CCTATAGTGAGTCGTTCGATATTACAATTCACTGG
# DNA 2: CCAGTGAATTGTAATATCGAACGACTCACTATAGG
# Assays:
# [1] = tested on: Ct Ycg1 24-1006;Ct Brn1 515-634 (Chaetomium thermophilum;Chaetomium thermophilum); test: EMSA; conditions: protein conc. at which free DNA is depleted; EMSA: 10 mM HEPES-KOH pH 7.5, 125 mM NaCl, 5 mM MgCl2, 1 mM DTT, 30 min, gels at 4 C, 0.2 uM 35-bp or 10 nM 2.1-kb DNA; ITC: 25 mM Tris-HCl pH 7.5, 200 mM …
# [2] = tested on: Ct Ycg1 24-1006;Ct Brn1 PhiD 515-634 (Chaetomium thermophilum;Chaetomium thermophilum); test: EMSA; conditions: protein conc. at which free DNA is depleted; EMSA: 10 mM HEPES-KOH pH 7.5, 125 mM NaCl, 5 mM MgCl2, 1 mM DTT, 30 min, gels at 4 C, 0.2 uM 35-bp or 10 nM 2.1-kb DNA; ITC: 25 mM Tris-HCl pH 7.5, 200 mM …
# [3] = tested on: Ct Ycg1 24-1006;Ct Brn1 deltaN 539-634 (Chaetomium thermophilum;Chaetomium thermophilum); test: EMSA; conditions: protein conc. at which free DNA is depleted; EMSA: 10 mM HEPES-KOH pH 7.5, 125 mM NaCl, 5 mM MgCl2, 1 mM DTT, 30 min, gels at 4 C, 0.2 uM 35-bp or 10 nM 2.1-kb DNA; ITC: 25 mM Tris-HCl pH 7.5, 200 mM …
# [4] = tested on: Ct Ycg1 24-1006;Ct Brn1 515-634 (Chaetomium thermophilum;Chaetomium thermophilum); test: ITC; conditions: 2 mM Mg2+, 25 C; EMSA: 10 mM HEPES-KOH pH 7.5, 125 mM NaCl, 5 mM MgCl2, 1 mM DTT, 30 min, gels at 4 C, 0.2 uM 35-bp or 10 nM 2.1-kb DNA; ITC: 25 mM Tris-HCl pH 7.5, 200 mM …
# [5] = biological target: T1, Sc Ycg1 crystallization construct;Sc …; test: X-ray crystallography; 5 mM MgSO4; EMSA: 10 mM HEPES-KOH pH 7.5, 125 mM NaCl, 5 mM MgCl2, 1 mM DTT, 30 min, gels at 4 C, 0.2 uM 35-bp or 10 nM 2.1-kb DNA; ITC: 25 mM Tris-HCl pH 7.5, 200 mM NaCl, 2 mM MgCl2, 1 mM BME, 25 C; conditions: protein: recombinant;recombinant; tags: untagged;N-terminal His6-HRV3C; copies: 1;1; blunt, self-complementary
# [6] = biological target: T2, Sc Ycg1 crystallization construct;Sc …; test: X-ray crystallography; crystal form I, 2.98 A, 5 mM MgSO4; EMSA: 10 mM HEPES-KOH pH 7.5, 125 mM NaCl, 5 mM MgCl2, 1 mM DTT, 30 min, gels at 4 C, 0.2 uM 35-bp or 10 nM 2.1-kb DNA; ITC: 25 mM Tris-HCl pH 7.5, 200 mM NaCl, 2 mM MgCl2, 1 mM BME, 25 C; conditions: protein: recombinant;recombinant; tags: untagged;N-terminal His6-HRV3C; copies: 1;1; blunt, self-complementary
# [7] = biological target: Sc Smc2;Sc Smc4;Sc Ycs4;Sc Brn1 (Saccharomyces cerevisiae;Saccharomyces …, UniProt P38989;Q12267;Q06156;P38170 1-1170;1-1418;1-1176;1-754, |||); test: EMSA; lacks Ycg1; EMSA: 10 mM HEPES-KOH pH 7.5, 125 mM NaCl, 5 mM MgCl2, 1 mM DTT, 30 min, gels at 4 C, 0.2 uM 35-bp or 10 nM 2.1-kb DNA; ITC: 25 mM Tris-HCl pH 7.5, 200 mM NaCl, 2 mM MgCl2, 1 mM BME, 25 C; conditions: protein: recombinant;recombinant;recombinant;recombinant; tags: ;C-terminal StrepII x3;;C-terminal His12-HA3; copies: 1;1;1;1; label: 5' 6-FAM on strand 1; blunt
# Sequence of Sc Smc2;Sc Smc4;Sc Ycs4;Sc Brn1 (P38989 whole entry, chain 1 of 4): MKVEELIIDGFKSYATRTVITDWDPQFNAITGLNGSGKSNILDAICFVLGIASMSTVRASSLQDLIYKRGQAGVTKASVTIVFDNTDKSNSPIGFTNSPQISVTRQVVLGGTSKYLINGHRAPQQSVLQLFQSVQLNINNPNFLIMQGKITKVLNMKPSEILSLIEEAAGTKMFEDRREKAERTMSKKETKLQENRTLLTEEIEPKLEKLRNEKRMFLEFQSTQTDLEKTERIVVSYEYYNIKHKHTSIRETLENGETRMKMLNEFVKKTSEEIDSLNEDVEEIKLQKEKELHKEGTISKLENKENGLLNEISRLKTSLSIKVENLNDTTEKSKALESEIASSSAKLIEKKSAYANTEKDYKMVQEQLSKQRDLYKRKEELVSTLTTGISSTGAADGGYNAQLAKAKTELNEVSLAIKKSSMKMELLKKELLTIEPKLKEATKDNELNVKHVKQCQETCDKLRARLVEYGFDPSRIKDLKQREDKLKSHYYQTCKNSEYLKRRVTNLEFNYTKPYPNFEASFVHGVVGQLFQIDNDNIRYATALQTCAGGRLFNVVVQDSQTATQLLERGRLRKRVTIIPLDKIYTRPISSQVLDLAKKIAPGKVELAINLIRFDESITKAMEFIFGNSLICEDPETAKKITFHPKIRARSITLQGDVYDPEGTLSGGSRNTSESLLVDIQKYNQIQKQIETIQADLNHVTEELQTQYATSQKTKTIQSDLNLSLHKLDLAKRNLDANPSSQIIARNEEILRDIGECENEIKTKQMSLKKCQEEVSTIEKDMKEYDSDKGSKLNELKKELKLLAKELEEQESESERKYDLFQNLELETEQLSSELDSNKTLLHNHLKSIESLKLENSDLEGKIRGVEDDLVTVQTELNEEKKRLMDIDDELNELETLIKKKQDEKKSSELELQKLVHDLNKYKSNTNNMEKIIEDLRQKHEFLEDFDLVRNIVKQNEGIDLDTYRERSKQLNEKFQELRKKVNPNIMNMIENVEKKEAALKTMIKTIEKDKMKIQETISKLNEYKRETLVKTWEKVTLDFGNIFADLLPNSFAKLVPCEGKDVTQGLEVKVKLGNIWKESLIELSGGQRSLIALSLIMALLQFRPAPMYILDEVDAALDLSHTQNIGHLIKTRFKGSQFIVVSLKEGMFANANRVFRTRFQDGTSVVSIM
# Sequence of Sc Smc2;Sc Smc4;Sc Ycs4;Sc Brn1 (Q12267 whole entry, chain 2 of 4): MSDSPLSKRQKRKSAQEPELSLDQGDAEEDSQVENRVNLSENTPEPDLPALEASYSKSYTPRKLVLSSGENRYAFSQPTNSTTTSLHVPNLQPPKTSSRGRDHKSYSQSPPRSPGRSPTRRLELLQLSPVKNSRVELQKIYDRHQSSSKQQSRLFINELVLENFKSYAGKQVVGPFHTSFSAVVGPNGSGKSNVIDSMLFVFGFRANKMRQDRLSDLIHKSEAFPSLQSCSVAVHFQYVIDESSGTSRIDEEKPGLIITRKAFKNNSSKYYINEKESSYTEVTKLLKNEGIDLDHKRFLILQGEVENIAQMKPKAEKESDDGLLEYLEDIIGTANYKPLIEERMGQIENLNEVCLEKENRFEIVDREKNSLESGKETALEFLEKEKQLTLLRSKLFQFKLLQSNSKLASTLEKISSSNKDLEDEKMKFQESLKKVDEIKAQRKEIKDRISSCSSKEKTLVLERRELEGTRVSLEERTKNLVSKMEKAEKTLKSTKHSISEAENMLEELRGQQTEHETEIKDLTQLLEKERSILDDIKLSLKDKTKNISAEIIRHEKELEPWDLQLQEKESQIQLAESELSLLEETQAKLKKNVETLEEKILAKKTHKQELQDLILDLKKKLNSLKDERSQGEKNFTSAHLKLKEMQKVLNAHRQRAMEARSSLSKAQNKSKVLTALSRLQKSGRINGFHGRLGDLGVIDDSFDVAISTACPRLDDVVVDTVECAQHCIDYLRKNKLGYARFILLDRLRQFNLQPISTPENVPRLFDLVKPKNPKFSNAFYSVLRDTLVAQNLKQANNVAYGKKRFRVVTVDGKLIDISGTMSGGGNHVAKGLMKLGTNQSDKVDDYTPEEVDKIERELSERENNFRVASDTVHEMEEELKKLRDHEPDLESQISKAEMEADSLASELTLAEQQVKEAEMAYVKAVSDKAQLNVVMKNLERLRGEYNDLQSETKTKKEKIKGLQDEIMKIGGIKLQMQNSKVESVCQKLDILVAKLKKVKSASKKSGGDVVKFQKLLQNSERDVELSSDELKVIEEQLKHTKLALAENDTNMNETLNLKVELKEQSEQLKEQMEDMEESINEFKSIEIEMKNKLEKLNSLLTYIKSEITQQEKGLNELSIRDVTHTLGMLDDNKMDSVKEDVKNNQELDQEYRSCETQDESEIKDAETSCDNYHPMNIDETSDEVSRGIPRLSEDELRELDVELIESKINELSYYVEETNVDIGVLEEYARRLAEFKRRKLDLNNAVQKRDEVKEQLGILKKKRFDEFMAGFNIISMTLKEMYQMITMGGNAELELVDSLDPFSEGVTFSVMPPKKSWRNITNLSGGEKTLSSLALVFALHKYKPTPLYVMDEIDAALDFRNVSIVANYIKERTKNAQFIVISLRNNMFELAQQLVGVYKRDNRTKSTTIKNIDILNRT
# Sequence of Sc Smc2;Sc Smc4;Sc Ycs4;Sc Brn1 (Q06156 whole entry, chain 3 of 4): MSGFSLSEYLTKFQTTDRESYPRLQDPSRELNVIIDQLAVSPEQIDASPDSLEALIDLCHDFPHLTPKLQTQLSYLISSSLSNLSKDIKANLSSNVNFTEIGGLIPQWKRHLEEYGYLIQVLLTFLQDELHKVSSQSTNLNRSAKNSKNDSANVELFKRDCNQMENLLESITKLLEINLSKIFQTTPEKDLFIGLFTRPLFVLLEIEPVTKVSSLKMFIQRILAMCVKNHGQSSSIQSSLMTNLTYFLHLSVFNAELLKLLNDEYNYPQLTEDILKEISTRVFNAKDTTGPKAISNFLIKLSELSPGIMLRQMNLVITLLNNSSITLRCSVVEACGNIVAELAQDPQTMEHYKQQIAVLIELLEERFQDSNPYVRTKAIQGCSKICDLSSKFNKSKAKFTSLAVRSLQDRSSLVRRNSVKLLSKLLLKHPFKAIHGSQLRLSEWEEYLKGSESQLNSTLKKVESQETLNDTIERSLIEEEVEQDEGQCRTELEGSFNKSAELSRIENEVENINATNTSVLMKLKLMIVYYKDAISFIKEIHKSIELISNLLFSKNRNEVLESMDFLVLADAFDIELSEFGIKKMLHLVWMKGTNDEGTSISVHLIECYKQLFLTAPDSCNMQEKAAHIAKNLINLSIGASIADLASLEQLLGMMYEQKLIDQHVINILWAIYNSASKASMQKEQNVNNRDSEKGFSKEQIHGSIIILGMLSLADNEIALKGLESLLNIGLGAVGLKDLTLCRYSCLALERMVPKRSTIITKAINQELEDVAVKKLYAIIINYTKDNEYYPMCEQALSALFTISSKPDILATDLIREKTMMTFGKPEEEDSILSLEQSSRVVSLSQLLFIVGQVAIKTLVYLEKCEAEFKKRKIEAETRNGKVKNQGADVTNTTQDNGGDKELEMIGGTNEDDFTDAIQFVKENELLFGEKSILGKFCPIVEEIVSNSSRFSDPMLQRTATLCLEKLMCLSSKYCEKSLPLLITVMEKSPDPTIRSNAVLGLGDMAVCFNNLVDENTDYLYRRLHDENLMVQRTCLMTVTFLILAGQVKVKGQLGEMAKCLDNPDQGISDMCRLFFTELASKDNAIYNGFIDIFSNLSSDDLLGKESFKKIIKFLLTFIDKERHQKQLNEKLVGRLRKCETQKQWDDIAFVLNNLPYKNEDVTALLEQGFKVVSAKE
# Sequence of Sc Smc2;Sc Smc4;Sc Ycs4;Sc Brn1 (P38170 whole entry, chain 4 of 4): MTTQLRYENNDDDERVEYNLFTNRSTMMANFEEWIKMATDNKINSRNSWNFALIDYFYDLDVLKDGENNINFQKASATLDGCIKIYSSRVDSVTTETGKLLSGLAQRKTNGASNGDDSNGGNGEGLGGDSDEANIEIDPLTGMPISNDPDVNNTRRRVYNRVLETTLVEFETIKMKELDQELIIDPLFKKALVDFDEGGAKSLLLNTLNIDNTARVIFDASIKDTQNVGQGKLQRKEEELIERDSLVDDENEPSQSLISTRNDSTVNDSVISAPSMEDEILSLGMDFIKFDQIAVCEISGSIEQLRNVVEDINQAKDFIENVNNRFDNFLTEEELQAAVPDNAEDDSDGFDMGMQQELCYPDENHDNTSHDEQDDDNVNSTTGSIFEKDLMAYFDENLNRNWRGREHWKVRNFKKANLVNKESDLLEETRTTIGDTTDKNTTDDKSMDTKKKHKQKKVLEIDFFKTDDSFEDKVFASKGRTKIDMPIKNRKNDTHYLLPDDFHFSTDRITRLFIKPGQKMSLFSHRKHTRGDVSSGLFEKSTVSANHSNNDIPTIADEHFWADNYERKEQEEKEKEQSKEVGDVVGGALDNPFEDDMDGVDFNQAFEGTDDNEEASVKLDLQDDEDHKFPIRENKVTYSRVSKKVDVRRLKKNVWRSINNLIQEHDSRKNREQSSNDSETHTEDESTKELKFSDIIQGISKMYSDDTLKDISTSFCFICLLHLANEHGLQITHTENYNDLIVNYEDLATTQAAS
# [8] = biological target: Sc Smc2;Sc Smc4;Sc Ycs4;Sc Ycg1;Sc Brn1 BC1/2 (Saccharomyces cerevisiae;Saccharomyces …, UniProt P38989;Q12267;Q06156;Q06680;P38170 1-1170;1-1418;1-1176;1-1035;1-754, ||||K409D;R411D;K414D;K451D;K452D;K454D;K456D;K457D); test: EMSA; EMSA: 10 mM HEPES-KOH pH 7.5, 125 mM NaCl, 5 mM MgCl2, 1 mM DTT, 30 min, gels at 4 C, 0.2 uM 35-bp or 10 nM 2.1-kb DNA; ITC: 25 mM Tris-HCl pH 7.5, 200 mM NaCl, 2 mM MgCl2, 1 mM BME, 25 C; conditions: protein: recombinant;recombinant;recombinant;recombinant;recombinant; tags: ;C-terminal StrepII x3;;;C-terminal His12-HA3; copies: 1;1;1;1;1; label: 5' 6-FAM on strand 1; blunt
molecule,measurement,setting,value
2.1-kb circular supercoiled plasmid,binding signal,[1],21 nM
same,binding signal,[2],83 nM
same,binding signal,[3],83 nM
CCTATAGTGAGTCACAATTCACTGG (double strand) [25-bp dsDNA],Kd,[4],1700 nM
CCTATAGTGAGTCGTTCGATATTACAATTCACTGG (double strand) [35-bp dsDNA],binding signal,[1],800 nM
same,binding signal,[2],800 nM
same,binding signal,[3],800 nM
B1,binding result,[5],binds
same,binding result,[6],binds
B2,binding result,[7],no binding
same,binding result,[8],no binding
